{"source": "patent US20210363526A1", "about": "“Use of Non-Coding Nucleic Acid for Crop Improvement and Protection Against Microbes” (University of Kentucky Research Foundation, priority 2020, published 2021)", "key": {"[1]": {"system": "Pseudomonas syringae DC 3000", "experiment": "SAR (systemic acquired resistance) assay: local treatment, distal leaves challenged with virulent pathogen", "assay_type": "in vivo, Arabidopsis", "details": "for SAR in ago1 plants: localized application to ago1 plants; for SAR in ago1 plants / SAR in ago7 plants / SAR in tas3a mutant plants: SA 500 μM, Pip 1000 μM, G3P 100 μM, DC3000 48 h later; for SAR in ago7 plants: localized application to ago7 plants; for SAR in tas3a mutant plants: localized application to tas3a plants, AzA 1000 μM", "experimental": "Pathogen infection and collection of phloem exudate—Inoculations with Pseudomonas syringae DC 3000 were conducted as described before. The bacterial cultures were grown overnight in King's B medium containing rifampicin and/or kanamycin. For analysis of SAR, the primary leaves were inoculated with MgCl2 or the avr bacteria (10^7 cfu ml^−1) and, 48 h later, the systemic leaves were inoculated with vir bacteria (10^5 cfu m1^−1). Unless noted otherwise, samples from the systemic leaves were harvested at 3 dpi. Petiole exudates were collected in diethyl pyrocarbonate (DEPC) treated water as described earlier. […] PEX RNA was extracted using the TRIzol reagent, quantified using nanodrop and cDNA synthesized from PEX RNA was evaluated for contamination with leaf RNA by assaying for amplification of Rubisco genes. Each sample was run in triplicates and UBC9 expression levels were used as internal control for normalization. Cycle threshold values were calculated by SDS 2.3 software.\nChemical and RNA treatments—SA, G3P, AzA, and Pip treatments were carried out by using 500 μM, 100 μM, 1000 μM, and 1000 μM solutions, respectively. TAS3a RNA was suspended at a concentration of 0.0075-75 ng/μ1 of DEPC water and ˜40 μl was infiltrated per leaf. AzA was prepared in methanol and diluted in water. SA, G3P and Pip were prepared and diluted in water. All dilutions were freshly prepared prior to performing biological experiments.\nStatistics and reproducibility—For pathogen assays, ˜16 plants/ genotype/treatment were analyzed in a single experiment. At least 3-4 technical replicates/genotype/treatment were plated. For metabolite quantification, ˜12 plants/genotype/treatment were analyzed in each experiment. Unless otherwise mentioned error bars indicate SD."}, "[2]": {"system": "isolated protoplasts", "experiment": "Uptake assay of 32P-TAS3a555 into isolated protoplasts", "assay_type": "cell-based, Arabidopsis", "details": "protoplasts incubated with 2 μM 32P-TAS3a555 for 1 h", "source_text": "(§1) FIGS. 9A-H show images and graphs illustrating that TAS3a RNA contains two overlapping open reading frames. (A) Nucleotide sequence of mature TAS3a RNA (SEQ ID NO: 1). Region shaded in purple and gray indicates overlapping open reading frames. Nucleotides shaded in yellow are miR390-AGO7 targeting sites on TAS3a transcript. Arrows indicate position of forward and reverse primers used for quantitative RT-PCR. Residues in red indicate alternate polyadenylation sites. (B) Real-time quantitative RT-PCR showing relative expression levels of ARF3 in Col-0 plants treated with buffer or Tas3a555 for 24 h. The error bars indicate SD (n=4). Results are representative of two independent experiments. Asterisks denote a significant difference (t test, P<0.0001). (C) Uptake assays showing percentage of ^32P-TAS3a555 transported into isolated protoplasts. Fresh protoplasts (10^6/ml) were incubated with 2 μM ^32P-TAS3a555 for 1 h, analyzed microscopically before and after four washes and quantified for the amount of radiolabel. The experiment was repeated three times with similar results. (D) RNA gel electrophoresis of in vitro synthesized TAS3a transcripts used in this study. (E) Typical morphological phenotypes of DC3000 inoculated distal leaves of Col-0 and tas3a plants. […]"}, "[3]": {"system": "Pip", "experiment": "Pip quantification after localized TAS3a application", "assay_type": "in vivo, Arabidopsis", "details": "Col-0, localized application"}, "[4]": {"system": "auxin responsive factor (ARF) 3", "experiment": "Real-time quantitative RT-PCR of ARF3 expression after TAS3a transcript application", "assay_type": "in vivo, Arabidopsis", "details": "Col-0 plants, exogenous application, 24 h", "source_text": "as §1, with “(C) Uptake assays showing percentage of ^32P-TAS3a555 transported into isolated protoplasts.” left out, “radiolabel.” for “radiolabel. The experiment was repeated three times with similar results. (D) RNA gel electrophoresis of in vitro synthesized TAS3a transcripts used in this study. (E) Typical morphological phenotypes of DC3000 inoculated distal leaves of Col-0 and tas3a plants.”\nRNA extraction, quantitative real-time PCR, and in vitro transcription—Small-scale extraction of RNA from two or three leaves (per sample) was performed with the TRIzol reagent (Invitrogen, CA), following the manufacturer's instructions. RNA quality and concentration were determined by gel electrophoresis and determination of A260. […] Quantitative RT-PCR was carried out as described before. […] Cycle threshold values were calculated by SDS 2.3 software."}, "[5]": {"system": "ROS", "experiment": "ROS (H2O2, DAB staining) after localized TAS3a application", "assay_type": "in vivo, Arabidopsis", "details": "Col-0, localized application", "experimental": "FIGS. 12A-D show graphs and images illustrating that exogenous application of TAS3a induces G3P but not SA, Pip, or ROS. (A) SA (left panel) and SAG (right panel) levels in Col-0 plants infiltrated with MgCl2, avrRpt2 or TAS3a transcripts. Leaf samples were collected 24 and 48 h post treatments. The error bars indicate SD (n=4). Asterisks denote a significant difference with respective mock-inoculated samples (t test, P<0.0001). (B) Pip levels in local tissues of Col-0 plants infiltrated with MgCl2 (mock), avrRpt2 or TAS3a transcripts. The leaves were sampled 48 h post treatments. Asterisks denote a significant difference with mock (t test, P<0.0001). The experiment was repeated two times with similar results. (C) H2O2 levels in local tissues of Col-0 plants after mock (MgCl2), pathogen (avrRpt2) or TAS3a treatments. The leaves were sampled 24 h post treatments and stained with DAB (3,3-diaminobenzidine). The experiment was repeated two times with similar results. (D) G3P levels in local tissues of water or 555 bp TAS3a transcript treated Col-0 plants. The leaves were sampled 24 h post treatments and the experiment was repeated two times with similar results. Asterisks denote a significant difference with respective mock-inoculated samples (t test, P<0.001)."}, "[6]": {"system": "G3P", "experiment": "G3P quantification after localized TAS3a application", "assay_type": "in vivo, Arabidopsis", "details": "Col-0, localized application, 24 h"}, "[7]": {"system": "SA", "experiment": "SA quantification after localized TAS3a application", "assay_type": "in vivo, Arabidopsis", "details": "Col-0, localized application"}}, "note": "Entries after “also recorded” stand apart in the source; their conditions may differ.", "data": [{"molecule": "O=P(O)(O)OCC(O)CO", "note": "(stereo not drawn) [G3P, glycerol-3-phosphate]", "values": [{"measurement": "SAR in ago1 plants", "setting": "[1]", "result": "unable to restore SAR"}, {"measurement": "SAR in ago7 plants", "setting": "[1]", "result": "unable to restore SAR"}, {"measurement": "SAR in tas3a mutant plants", "setting": "[1]", "result": "did not restore SAR"}]}, {"molecule": "O=C(O)CCCCCCCC(=O)O", "note": "[AzA, azelaic acid]", "values": [{"measurement": "SAR in tas3a mutant plants", "setting": "[1]", "result": "did not restore SAR"}]}, {"molecule": "O=C(O)C1CCCCN1", "note": "(stereo not drawn) [Pip, pipecolic acid]", "values": [{"measurement": "SAR in ago1 plants", "setting": "[1]", "result": "unable to restore SAR"}, {"measurement": "SAR in ago7 plants", "setting": "[1]", "result": "unable to restore SAR"}, {"measurement": "SAR in tas3a mutant plants", "setting": "[1]", "result": "did not restore SAR"}]}, {"molecule": "O=C(O)c1ccccc1O", "note": "[SA, salicylic acid]", "values": [{"measurement": "SAR in ago1 plants", "setting": "[1]", "result": "unable to restore SAR"}, {"measurement": "SAR in ago7 plants", "setting": "[1]", "result": "unable to restore SAR"}, {"measurement": "SAR in tas3a mutant plants", "setting": "[1]", "result": "did not restore SAR"}]}, {"molecule": "TAS3a transcript: exogenously applied in vitro transcribed TAS3a RNA, length not stated at the place (figure legends: 555 nt) (nucleic acid, listed as Arabidopsis thaliana) AUCCCACCGUUUCUUAAGACUCUCUCUCUUUCUGUUUUCUAUUUCUCUCUCUCUCAAAUGAAAGAGAGAGAAGAGCUCCCAUGGAUGAAAUUAGCGAGACCGAAGUUUCUCCAAGGCAUUAAGGAAAACAUAACCUCCGUGAUGCAUAGAGAUUAUUGGAUCCGCUGUGCUGAGACAUUGAGUUUUUCUUCGGCAUUCCAGUUUCAAUGAUAAAGCGGUGUUAUCCUAUCUGAGCUUUUAGUCGGAUUUUUUCUUUUCAAUUAUUGUGUUUUAUCUAGAUGAUGCAUUUCAUUAUUCUCUUUUUCUUGACCUUGUAAGGCCUUUUCUUGACCUUGUAAGACCCCAUCUCUUUCUAAACGUUUUAUUAUUUUCUCGUUUUACAGAUUCUAUUCUAUCUCUUCUCAAUAUAGAAUAGAUAUCUAUCUCUACCUCUAAUUCGUUCGAGUCAUUUUCUCCUACCUUGUCUAUCCCUCCUGAGCUAAUCUCCACAUAUAUCUUUUGUUUGUUAUUGAUGUAUGGUUGACAUAAAUUCAAUAAAGAAGUUGACGUUUUUCU", "values": [{"measurement": "uptake in isolated protoplasts", "setting": "[2]", "result": "confirmed by uptake"}, {"measurement": "SAR induction in wild-type plants", "setting": "[1]; localized application to wild-type Col-0, virulent DC3000 inoculated on distal leaves 48 h post-local treatment, transcripts 0.039 nmol/ml, Tasi-ARFs 1 μM (figure legends)", "result": "confer robust SAR; also recorded: able to induce SAR"}, {"measurement": "Pip accumulation", "setting": "[3]", "result": "did not induce"}, {"measurement": "Pip accumulation", "setting": "[3]; listed as TAS3a", "result": "not"}, {"measurement": "expression of TAS3a target gene ARF3", "setting": "[4]", "result": "suppressed"}, {"measurement": "ROS accumulation", "setting": "[5]", "result": "did not induce"}, {"measurement": "ROS accumulation", "setting": "[5]; listed as TAS3a", "result": "not"}, {"measurement": "G3P levels", "setting": "[6]", "result": "did increase"}, {"measurement": "G3P levels", "setting": "[6]; listed as TAS3a", "result": "induces"}, {"measurement": "SA accumulation", "setting": "[7]", "result": "did not induce"}, {"measurement": "SA accumulation", "setting": "[7]; listed as TAS3a", "result": "not"}]}]}
